T1: Abp1, P15891
T1 sequence (P15891 535-592, looked up): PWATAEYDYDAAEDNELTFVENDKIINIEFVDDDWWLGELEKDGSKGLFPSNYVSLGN

T2: Bbc1, P47068
T2 sequence (P47068 1-78, looked up): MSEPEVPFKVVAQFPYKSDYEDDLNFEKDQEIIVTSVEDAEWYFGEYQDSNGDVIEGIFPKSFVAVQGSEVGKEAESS

T3: Boi1, P38041
T3 sequence (P38041 1-86, looked up): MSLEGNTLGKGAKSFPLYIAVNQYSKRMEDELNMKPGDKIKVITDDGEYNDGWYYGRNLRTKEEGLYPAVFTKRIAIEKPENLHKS

T4: Boi2, P39969
T4 sequence (P39969 32-116, looked up): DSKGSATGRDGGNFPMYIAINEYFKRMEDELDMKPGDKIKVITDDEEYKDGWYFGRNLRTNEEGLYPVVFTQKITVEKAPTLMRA

T5: Bud14, P27637
T5 sequence (P27637 247-328, looked up): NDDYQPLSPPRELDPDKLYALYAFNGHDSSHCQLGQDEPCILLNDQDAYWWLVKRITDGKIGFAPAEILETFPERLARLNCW

T6: Bzz1-1, P38822
T6 sequence (P38822 478-572, looked up): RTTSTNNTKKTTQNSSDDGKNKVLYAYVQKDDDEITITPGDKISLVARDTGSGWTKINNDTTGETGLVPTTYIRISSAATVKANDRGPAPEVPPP

T7: Bzz1-2, P38822
T7 sequence (P38822 568-633, looked up): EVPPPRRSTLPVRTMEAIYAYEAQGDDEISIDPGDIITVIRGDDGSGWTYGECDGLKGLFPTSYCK

T8: Cdc25, P04821
T8 sequence (P04821 50-136, looked up): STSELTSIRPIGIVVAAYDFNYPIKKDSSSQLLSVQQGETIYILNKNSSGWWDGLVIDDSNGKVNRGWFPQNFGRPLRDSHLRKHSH

T9: Cyk3, Q07533
T9 sequence (Q07533 1-83, looked up): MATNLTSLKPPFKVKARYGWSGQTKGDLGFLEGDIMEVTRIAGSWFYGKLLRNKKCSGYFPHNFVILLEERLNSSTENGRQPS

T10: Fus1, P11710
T10 sequence (P11710 432-512, looked up): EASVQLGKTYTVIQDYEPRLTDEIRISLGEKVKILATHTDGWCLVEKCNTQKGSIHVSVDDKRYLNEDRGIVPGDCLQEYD

T11: Hof1, Q05080
T11 sequence (Q05080 590-669, looked up): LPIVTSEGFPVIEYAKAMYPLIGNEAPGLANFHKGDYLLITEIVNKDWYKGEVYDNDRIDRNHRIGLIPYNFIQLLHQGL

T12: Hse1, P38753
T12 sequence (P38753 208-285, looked up): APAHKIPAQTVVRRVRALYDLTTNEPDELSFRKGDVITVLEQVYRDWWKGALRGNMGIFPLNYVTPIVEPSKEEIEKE

T13: Lsb1, P53281
T13 sequence (P53281 45-122, looked up): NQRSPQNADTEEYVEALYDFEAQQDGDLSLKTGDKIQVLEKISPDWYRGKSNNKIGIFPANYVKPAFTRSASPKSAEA

T14: Lsb3, P43603
T14 sequence (P43603 385-451, looked up): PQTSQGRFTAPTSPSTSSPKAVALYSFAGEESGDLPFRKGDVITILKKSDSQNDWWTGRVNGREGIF

T15: Lsb4, P32793
T15 sequence (P32793 402-468, looked up): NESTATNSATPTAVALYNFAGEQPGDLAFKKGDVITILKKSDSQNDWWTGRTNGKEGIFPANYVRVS

T16: Myo5, Q04439
T16 sequence (Q04439 1072-1160, looked up): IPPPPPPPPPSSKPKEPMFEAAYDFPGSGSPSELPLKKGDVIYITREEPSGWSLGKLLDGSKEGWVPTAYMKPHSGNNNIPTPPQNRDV

T17: Nbp2, Q12163
T17 sequence (Q12163 103-180, looked up): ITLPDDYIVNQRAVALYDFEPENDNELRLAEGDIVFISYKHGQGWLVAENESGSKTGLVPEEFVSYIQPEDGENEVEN

T18: Pex13, P80667
T18 sequence (P80667 295-386, looked up): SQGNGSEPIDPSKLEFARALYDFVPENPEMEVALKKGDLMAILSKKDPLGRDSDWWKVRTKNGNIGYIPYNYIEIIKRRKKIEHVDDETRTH

T19: Pin3, Q06449
T19 sequence (Q06449 53-122, looked up): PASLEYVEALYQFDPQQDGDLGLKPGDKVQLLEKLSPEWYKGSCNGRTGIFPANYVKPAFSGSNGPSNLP

T20: Sla1-2, P32790
T20 sequence (P32790 60-140, looked up): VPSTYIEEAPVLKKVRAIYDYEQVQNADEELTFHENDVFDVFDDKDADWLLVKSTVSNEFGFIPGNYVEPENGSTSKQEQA

T21: Sla1-3, P32790
T21 sequence (P32790 344-424, looked up): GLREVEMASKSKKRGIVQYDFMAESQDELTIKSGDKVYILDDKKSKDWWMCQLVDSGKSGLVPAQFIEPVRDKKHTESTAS

B1: unnamed (peptide)
chain: EEEEEHPPLPARRKS
B2: unnamed (peptide)
chain: DDEDVPPQLPTRTKS
B3: unnamed (peptide)
chain: ISNFVPPNLPMRRFK

Each binder was assayed against T1, Abp1, P15891 (assay: SPOT array). Conditions: median of control spots 935.

| SPOT intensity | Binder |
| --- | --- |
| 0 | B1 |
| 0 | B2 |
| 129 | B3 |

Each binder was assayed against T2, Bbc1, P47068 (assay: SPOT array). Conditions: median of control spots 796.

| SPOT intensity | Binder |
| --- | --- |
| 9 | B1 |
| 5 | B2 |
| 199 | B3 |

These binders were tested against Bem1-1, P29366 (assay: SPOT array). Conditions: median of control spots 4282.
Bem1-1, P29366, sequence (P29366 55-141): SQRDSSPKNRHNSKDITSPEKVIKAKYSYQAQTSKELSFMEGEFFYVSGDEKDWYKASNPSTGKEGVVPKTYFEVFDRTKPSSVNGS

| SPOT intensity | Binder |
| --- | --- |
| 0 | B1 |
| 0 | B2 |
| 1 | B3 |

These binders were tested against Bem1-2, P29366 (assay: SPOT array). Conditions: median of control spots 4347.
Bem1-2, P29366, sequence (P29366 139-227): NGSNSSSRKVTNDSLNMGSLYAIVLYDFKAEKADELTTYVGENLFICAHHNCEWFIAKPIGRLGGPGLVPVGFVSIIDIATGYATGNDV

| SPOT intensity | Binder |
| --- | --- |
| 3 | B1 |
| 3 | B2 |
| 7 | B3 |

Each binder was assayed against T3, Boi1, P38041 (assay: SPOT array). Conditions: median of control spots 1162.

| SPOT intensity | Binder |
| --- | --- |
| 0 | B1 |
| 2 | B2 |
| 0 | B3 |

What follows are binders tested against T4, Boi2, P39969 (assay: SPOT array). Conditions: median of control spots 1161.

| SPOT intensity | Binder |
| --- | --- |
| 0 | B1 |
| 1 | B2 |
| 0 | B3 |

These binders were tested against T5, Bud14, P27637 (assay: SPOT array). Conditions: median of control spots 956.

| SPOT intensity | Binder |
| --- | --- |
| 0 | B1 |
| 1 | B2 |
| 8 | B3 |

These binders were tested against T6, Bzz1-1, P38822 (assay: SPOT array). Conditions: median of control spots 4446.

| SPOT intensity | Binder |
| --- | --- |
| 4 | B1 |
| 0 | B2 |
| 1 | B3 |

Each binder was assayed against T7, Bzz1-2, P38822 (assay: SPOT array). Conditions: median of control spots 4538.

| SPOT intensity | Binder |
| --- | --- |
| 3 | B1 |
| 0 | B2 |
| 19 | B3 |

These binders were tested against T8, Cdc25, P04821 (assay: SPOT array). Conditions: median of control spots 969.

| SPOT intensity | Binder |
| --- | --- |
| 0 | B1 |
| 0 | B2 |
| 0 | B3 |

Each binder was assayed against T9, Cyk3, Q07533 (assay: SPOT array). Conditions: median of control spots 1451.

| SPOT intensity | Binder |
| --- | --- |
| 0 | B1 |
| 0 | B2 |
| 0 | B3 |

These binders were tested against T10, Fus1, P11710 (assay: SPOT array). Conditions: median of control spots 1200.

| SPOT intensity | Binder |
| --- | --- |
| 0 | B1 |
| 0 | B2 |
| 0 | B3 |

The binders below were run against GST (assay: SPOT array). Conditions: median of control spots 978.

| SPOT intensity | Binder |
| --- | --- |
| 0 | B1 |
| 1 | B2 |
| 1 | B3 |

The binders below were run against T11, Hof1, Q05080 (assay: SPOT array). Conditions: median of control spots 4086.

| SPOT intensity | Binder |
| --- | --- |
| 0 | B1 |
| 0 | B2 |
| 5 | B3 |

What follows are binders tested against T12, Hse1, P38753 (assay: SPOT array). Conditions: median of control spots 1727.

| SPOT intensity | Binder |
| --- | --- |
| 0 | B1 |
| 2 | B2 |
| 72 | B3 |

Each binder was assayed against T13, Lsb1, P53281 (assay: SPOT array). Conditions: median of control spots 388.

| SPOT intensity | Binder |
| --- | --- |
| 32 | B1 |
| 58 | B2 |
| 63 | B3 |

What follows are binders tested against T14, Lsb3, P43603 (assay: SPOT array). Conditions: median of control spots 406.

| SPOT intensity | Binder |
| --- | --- |
| 683 | B1 |
| 556 | B2 |
| 588 | B3 |

The binders below were run against T15, Lsb4, P32793 (assay: SPOT array). Conditions: median of control spots 397.

| SPOT intensity | Binder |
| --- | --- |
| 590 | B1 |
| 897 | B2 |
| 452 | B3 |

The binders below were run against Myo3, P36006 (assay: SPOT array). Conditions: median of control spots 468.

| SPOT intensity | Binder |
| --- | --- |
| 0 | B1 |
| 0 | B2 |
| 59 | B3 |

These binders were tested against T16, Myo5, Q04439 (assay: SPOT array). Conditions: median of control spots 471.

| SPOT intensity | Binder |
| --- | --- |
| 0 | B1 |
| 0 | B2 |
| 37 | B3 |

These binders were tested against T17, Nbp2, Q12163 (assay: SPOT array). Conditions: median of control spots 357.

| SPOT intensity | Binder |
| --- | --- |
| 1 | B1 |
| 0 | B2 |
| 1 | B3 |

These binders were tested against T18, Pex13, P80667 (assay: SPOT array). Conditions: median of control spots 1341.

| SPOT intensity | Binder |
| --- | --- |
| 155 | B1 |
| 97 | B2 |
| 671 | B3 |

The binders below were run against T19, Pin3, Q06449 (assay: SPOT array). Conditions: median of control spots 2171.

| SPOT intensity | Binder |
| --- | --- |
| 0 | B1 |
| 2 | B2 |
| 217 | B3 |

What follows are binders tested against Rvs167, P39743 (assay: SPOT array). Conditions: median of control spots 2707.
Rvs167, P39743, sequence (P39743 419-482): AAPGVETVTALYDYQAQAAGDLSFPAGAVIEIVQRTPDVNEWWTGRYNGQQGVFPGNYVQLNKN

| SPOT intensity | Binder |
| --- | --- |
| 222 | B1 |
| 1260 | B2 |
| 2140 | B3 |

These binders were tested against Sho1, P40073 (assay: SPOT array). Conditions: median of control spots 1148.
Sho1, P40073, sequence (P40073 287-367): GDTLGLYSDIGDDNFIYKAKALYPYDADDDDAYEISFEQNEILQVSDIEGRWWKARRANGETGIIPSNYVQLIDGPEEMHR

| SPOT intensity | Binder |
| --- | --- |
| 0 | B1 |
| 0 | B2 |
| 65 | B3 |

Each binder was assayed against T20, Sla1-2, P32790 (assay: SPOT array). Conditions: median of control spots 712.

| SPOT intensity | Binder |
| --- | --- |
| 0 | B1 |
| 0 | B2 |
| 39 | B3 |

These binders were tested against T21, Sla1-3, P32790 (assay: SPOT array). Conditions: median of control spots 5475.

| SPOT intensity | Binder |
| --- | --- |
| 1 | B1 |
| 1 | B2 |
| 3 | B3 |

Source: PMC2756588
